Test results from article PMC5555201, “Parallel homodimer structures of the extracellular domains of the voltage-gated sodium channel β4 subunit explain its role in cell–cell adhesion” (The Journal of Biological Chemistry, 2017).

Legend:
[1] = target: the molecule itself; test: crystal structure; mouse β4ex, cubic crystal form, 3.1 Å; 2.7 M sodium malonate, 0.1 M Tris-HCl (pH 7.0), 0.5% Tween 20, 20 °C; two molecules in the asymmetric unit related by non-crystallographic 2-fold symmetry
[2] = target: the molecule itself; test: SEC; HiLoad 16/60 Superdex 75, non-reducing conditions; second peak (65–75 ml) of the anion exchange chromatography; 20 mM Tris-HCl (pH 8.0), 150 mM NaCl, 10% glycerol

Protein | binding result [1] | stoichiometry N [2]
mouse β4 subunit extracellular domain fragment (residues 30–160) with a C-terminal His6 tag (domain or fragment, UniProt Q7M729 30-160, looked up, voltage-gated sodium channel β4 subunit, mouse, GenBank BK001031.1, residues 30–160 (numbering starts from the initiator methionine residue); all three Cys residues kept; Cloned into pGEX6P2; GST cleaved with PreScission protease; also called mouse β4ex; mouse β4 (cubic form); source: E. coli BL21DE3, purified (nickel-Sepharose, glutathione-Sepharose, Mono Q); not shown: His6, C-terminal, kept) SLEVSVGKATTIYAINGSSILLPCTFSSCYGFENLYFKWSYNNSETSRILIDGIVKNDKSDPKVRVKDDDRITLEGSTKEKTNNISILLSDLEFSDTGRYTCFVRNPKEKDLNNSATIFLQVVDKLEKVDN | binds | 
human β4 subunit extracellular domain fragment (residues 30–152) (domain or fragment, UniProt Q8IWT1-1 30-152, looked up, voltage-gated sodium channel β4 subunit, human, GenBank NP_777594, residues 30–152; all three Cys residues kept; His tag cleaved by tobacco etch virus protease; also called human β4ex; human β4 (hexagonal form); source: E. coli cell-free protein synthesis, purified (HisTrap, HiTrap Q, Superdex 75); not shown: His tag, N-terminal, cleaved) SLEVSVGKATDIYAVNGTEILLPCTFSSCFGFEDLHFRWTYNSSDAFKILIEGTVKNEKSDPKVTLKDDDRITLVGSTKEKMNNISIVLRDLEFSDTGKYTCHVKNPKENNLQHHATIFLQVV |  | 2
